From US20190367628A1 (Novartis, published 2019) come the findings set out here.

Test [1] deals with T1, Cyno BCMA APP-Avi (cynomolgus, biotinylated (site not stated)).
T1 construct: It was used as soluble biotinylated antigen; also called biotinylated cyno BCMA
In words: flow cytometry of single yeast clone displaying the scFv, labelled with 20 nM biotinylated cyno BCMA, streptavidin/neutravidin-DyLight 633 detection. On the procedure: (§1) For the fourth round of screening, yeast from the third round output were pelleted, washed, and resuspended in 200 mL SD-ura broth with 1% raffinose, 2% galactose, and incubated for 22 hours at 20° C. to induce expression. […] The first sample was incubated with human BCMA for 45 min at room temperature, pelleted, washed twice with PBSF, and then resuspended in 1 mL PBSF (PBS with 0.1% BSA). The second sample was incubated with human BCMA for 45 minutes at room temperature. Both samples were pelleted, washed twice with PBSF, and resuspended in 200 uL of PBSF+a 1:30 dilution of rabbit anti-cMyc-FITC (Abcam)+a 1:100 dilution of neutravidin-dylight 633 (Invitrogen). Samples were incubated at 4 C for 30 min, pelleted, washed twice with PBSF, resuspended in 3 mL PBSF, filtered through 40 um filters, then sorted using flow cytometry on a FACS Aria cell sorter (Becton Dickinson Biosciences, San Jose, Calif.). Approximately 5×10⁵ yeast were isolated and resuspended in 4 mL SD-ura broth with 2% glucose and grown overnight at 30° C.
(§2) Each sample plate was used to create three test plates for flow cytometric analysis. […] Labeling was essentially as above for sorting, except using 1:200 each streptavidin-dylight 633 (Invitrogen) and neutravidin-dylight 633 (Invitrogen) in PBSF as secondary reagent and excluding any anti-cMyc antibody. The test plates were analyzed on a Cytoflex flow cytometer (Beckman Coulter, Brea, Calif.)
On the technique in general: Flow cytometry measures light scatter and fluorescence of single cells or particles in a stream.

Test [2] addresses T1, Cyno BCMA APP-Avi. Description: flow cytometry of single yeast clone displaying the scFv, labelled with 900 pM biotinylated cyno BCMA, streptavidin/neutravidin-DyLight 633 detection. The procedure:
as §1, §2

The target of test [3] is T2, recombinant human BCMA (human, UniProt Q02223 1-54, limits assumed).
T2 construct: The SET method says only 'recombinant human BCMA'; also called hBCMA; TNFRSF17
T2 sequence (looked up): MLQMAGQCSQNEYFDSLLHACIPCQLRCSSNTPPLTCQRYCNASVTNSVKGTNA
In words: solution equilibrium titration (SET, MSD); apparent KD; bispecific at a fixed concentration, BCMA titrated in solution.

Test [4] concerns the target T3, recombinant cynomolgus monkey BCMA (cynomolgus monkey, UniProt A0A2K5UD97 1-53).
T3 construct: The SET method says only 'recombinant cynomolgus monkey BCMA'; also called Cyno BCMA; cynoBCMA
Described as above.

For test [5], the target named is T4, Human BCMA-His-APP-Avi (human, biotinylated (captured on streptavidin plate; site not stated)).
T4 construct: also called His-APP-Avi-tagged human BCMA
T4 chain: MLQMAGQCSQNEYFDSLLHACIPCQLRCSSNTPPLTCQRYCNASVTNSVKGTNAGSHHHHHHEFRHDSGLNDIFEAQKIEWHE
In words: monoclonal phage ELISA, anti-M13-HRP, Abs450 against fold dilution of phage. On the technique in general: In an ELISA, binding on a coated surface is turned into a signal by an enzyme label.

For test [6], the target named is T5, human BCMA (antigen of the surface plasmon resonance measurement of PI-61) (human, UniProt Q02223 1-54, limits assumed).
T5 construct: Construct used in the SPR experiment is not described
T5 sequence (looked up): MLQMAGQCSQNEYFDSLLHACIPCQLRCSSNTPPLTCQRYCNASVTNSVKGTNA
In words: surface plasmon resonance. In general terms: In SPR one partner is held on a chip, and binding of the other changes the refractive index at the surface.

In test [7] the target is T6, cynomolgus BCMA (antigen of the surface plasmon resonance measurement of PI-61) (cynomolgus, UniProt A0A2K5UD97 1-53).
T6 construct: Construct used in the SPR experiment is not described; also called cyno BCMA; not shown: The carrier or tag of the soluble cyno BCMA used in SPR
T6 sequence (A0A2K5UD97 entry or part of it limits assumed): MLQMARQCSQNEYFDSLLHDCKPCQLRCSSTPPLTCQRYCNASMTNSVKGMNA
Description: surface plasmon resonance.

T1 sequence (chain, as listed by the source limits assumed): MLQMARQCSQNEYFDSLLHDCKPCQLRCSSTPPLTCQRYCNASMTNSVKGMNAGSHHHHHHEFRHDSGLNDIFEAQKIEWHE

B1: H2/L2-36 scFv (scFv)
scFv: QAQLQSSGGGVVQPGRSLRLSCAASGFTFSSYGMHWVRQAPGKGLEWVAVISYKGSNKYYADSVKGRFTISRDNSKNTLYLQMNSLRAEDTAVYYCGGSGYALHDDYYGLDVWGQGTLVTVSSSGGGGSGGGGSGGGGSGGGGSQSALTQPASVSGSPGQSITISCTGTSSDVGGYNYVSWYQQHPGKAPKLMIYEVSNRLRGVSNRFSGSKFGNTASLTISGLQAEDEADYYCSSYTSSSTLYVFGSGTKVTVL
As to B1, the MFI in test [1] came to 6430 MFI; in test [2] it was 5590 MFI.

B2: H2/L2-18 scFv (scFv)
scFv: QAQLQGSGGGVVQPGRSLRLSCAASGFTFSSYGMHWVRQAPGKGLEWVAVISYKGSHKYYADSVKGRFTISRDNSKNTLYLQMNSLRAEDTAVYYCGGSGYALHDDYYGLDVWGQGTLVTVSSSGGGGSGGGGSGGGGSGGGGSQSALTQPASVSGSPGQSITISCTGTSSDVGGYNYVSWYQQHPGKAPKLMIYDVSNRPWGVSNRFSGSKFGNTASLTISGLQAEDEADYYCSSYTSSSTLYVFGSGTKVTVL
Regarding B2, the figures for the MFI in test [1] and in test [2] were 19900 MFI and 7180 MFI, respectively.

B3: H2/L2-88 scFv (scFv)
scFv: QVQLQSSEGGVVQPGRSLRLSCAASGFTFSSYGMHWVRQAPGKGLEWVAVISYKGSNKYYADSVKGRFTISRDNSKNTLYLQMNSLRAEDTAVYYCGGSGYALHDDYYGLDVWGQGTLVTVSSSGGGGSGGGGSGGGGSGGGGSQSALTQPASVSGSPGQSITISCTGTSSDVGGYNYVSWYQQHPGKAPKLMIYEVSNRLRGVSNRFSGSKFGNTASLTISGLQAEDEADYYCSSYTSSSALYVFGSGTKVTVL
Take B3: the results for the MFI in test [1] and in test [2] were 4480 MFI and 6440 MFI, respectively.

B4: H2/L2-80 scFv (scFv)
scFv: QVQLQSSGGGVVQPGRSLRLSCAASGFTFSSYGMHWVRQAPGKGLEWVAVISYTGSNKYYADSVKGRFTISRDNSKNTLYLQMNSLRAEDTAVYYCGGSGYALHDDYYGLDVWGQGTLVTVSSSGGGGSGGGGSGGGGSGGGGSQSALTQPASVSGSPGQSITISCTGTSSDVGGYNYVSWYQQHPGKAPKLMIYDVSNRAWGVSNRFSGSKFGNTASLTISGLQAEDEADYYCSSYTSSSALYVFGSGTKVTVL
As for B4, the values for the MFI in test [1] and in test [2] were 17900 MFI and 6540 MFI, respectively.

B5: H2/L2-68 scFv (scFv)
scFv: QAQLQSSEGGVVQPGRSLRLSCAASGFTFSSYGMHWVRQAPGKGLEWVAVISYRGFNKYYADSVKGRFTISRDNSKNTLYLQMNSLRAEDTAVYYCGGSGYALHDDYYGQDVWGQGTLVTVSSSGGGGSGGGGSGGGGSGGGGSQSALTQPASVSGSPGQSITISCTGTSSDVGGYNYVSWYQQHPGKAPKLMIYDVSNRLSGVSNRFSGSKFGNTASLTISGLQAEDEADYYCSSYTSSSTLYVFGSGTKVTVL
With B5, the values for the MFI in test [1] and in test [2] were 16200 MFI and 7380 MFI, respectively.

B6: H2/L2-83 scFv (scFv)
scFv: QAQLQGSGGGVVQPGRSLRLSCAASGFTFSSYGMHWVRQAPGKGLEWVAVISYKGSNKYYADSVKGRFTISRDNSKNTLYLQMNSLRAEDTAVYYCGGSGYALHDDYYGLDVWGQGTLVTVSSSGGGGSGGGGSGGGGSGGGGSQSALTQPASVSGSPGQSITISCTGTSSDVGGYNYVSWYQQHPGKAPKLMIYEVSNRLRGVSNRFSGSKFGNTASLTISGLQAEDEADYYCSSYTSSSTLYVFGSGTKVTVL
For the molecule B6, the MFI was found to be 10700 MFI in test [1] and 4880 MFI in test [2].

B7: H2/L2-34 scFv (scFv)
scFv: QVQLQDSEGGVVQPGRSLRLSCAASGFTFSSYGMHWVRQAPGKGLEWVAVISYTGTKKYYADSVKGRFTISRDNSKNTLYLQMNSLRAEDTAVYYCGGSGYALHDDYYGLDVWGQGTLVTVSSSGGGGSGGGGSGGGGSGGGGSQSALTQPASVSGSPGQSITISCTGTSSDVGGYNYVSWYQQHPGKAPKLMIYDVSNRPWGVSNRFSGSKFGNTASLTISGLQAEDEADYYCSSYTSSSALYVFGSGTKVTVM
For the molecule B7, the values for the MFI in test [1] and in test [2] were 10400 MFI and 6050 MFI, respectively.

B8: H2/L2-47 scFv (scFv)
scFv: QVQLQSSEGGVVQPGRSLRLSCAASGFTFSSYGMHWVRQAPGKGLEWVAVISYKGSNKYYADSVKGRFTISRDNSKNTLYLQMNSLRAEDTAVYYCGGSGYALHDDYYGLDVWGQGTLVTVSSSGGGGSGGGGSGGGGSGGGGSQSALTQPASVSGSPGQSITISCTGTSSDVGGYNYVSWYQQHPGKAPKLMIYDVSNRPWGVSNRFSGSKFGNTASLTISGLQAEDEADYYCSSYTSSSTLYVFGSGTKVTVL
In the case of B8, the MFI in test [1] is 14200 MFI; in test [2], 5930 MFI.

B9: H2/L2-20 scFv (scFv)
scFv: QAQLQSSGGGVVQPGRSLRLSCAASGFTVSSYGMHWVRQAPGKGLEWVAVISYTGSNKYYADSVKGRFTISRDNSKNTLYLQMNSLRAEDTAVYYCGGSGYALHDDYYGLDVWGQGTLVTVSSSGGGGSGGGGSGGGGSGGGGSQSALTQPASVSGSPGQSITISCTGTSSDVGGYNYVSWYQQHPGKAPKLMIYDVSNRLRGVSNRFSGSKFGNTASLTISGLQAEDEADYYCSSYTSSSALYVFGSGTKVTVL
Regarding B9, the MFI in test [1] worked out at 20700 MFI; in test [2], 7030 MFI.

B10: BCMA-CD3 bispecific antibody AB3 (bispecific antibody)
chain 1: not shown
chain 2: QSALTQPASVSGSPGQSITISCTGTSSDVGGYNYVSWYQQHPGKAPKLMIYDVSNRLRGVSNRFSGSKSGNTASLTISGLQAEDEADYYCSSYTSSSALYVFGSGTKVTVLGQPKAAPSVTLFPPSSEELQANKATLVCLISDFYPGAVTVAWKADSSPVKAGVETTTPSKQSNNKYAASSYLSLTPEQWKSHRSYSCQVTHEGSTVEKTVAPTECS
chain 3: not shown
As for B10, the Kd in test [3] is 0.0615 nM; in test [4], 0.105 nM.

B11: PI-61 (monoclonal phage clone) (other)
VH: QVQLQESGGGVVQPGRSLRLSCAASGFTFSSYGMHWVRQAPGKGLEWVAVISYDGSNKYYADSVKGRFTISRDNSKNTLYLQMNSLRAEDTAVYYCGGSGYALHDDYYGLDVWGQGTLVTVSS
VL: QSALTQPASVSGSPGQSITISCTGTSSDVGGYNYVSWYQQHPGKAPKLMIYDVSNRPSGVSNRFSGSKSGNTASLTISGLQAEDEADYYCSSYTSSSTLYVFGSGTKVTVL
Consider B11, for which, in test [5], the binding result is given as “binds”.

B12: PI-61 antibody (as measured by surface plasmon resonance) (antibody, V domains shown)
VH: QVQLQESGGGVVQPGRSLRLSCAASGFTFSSYGMHWVRQAPGKGLEWVAVISYDGSNKYYADSVKGRFTISRDNSKNTLYLQMNSLRAEDTAVYYCGGSGYALHDDYYGLDVWGQGTLVTVSS
VL: QSALTQPASVSGSPGQSITISCTGTSSDVGGYNYVSWYQQHPGKAPKLMIYDVSNRPSGVSNRFSGSKSGNTASLTISGLQAEDEADYYCSSYTSSSTLYVFGSGTKVTVL
notes: also called parental clone
B12: the Kd in test [6] was around 34 nM; in test [7] it was around 240 nM.
